Tests used:
[1] = molecular target: TAMRA-labeled UBXN1 UBA(ext1-52) domain (UniProt Q04323); experiment: MST; TAMRA-UBA peptide in FP binding buffer, K6 diUb 1.53 to 50 μM, 30 min incubation, hydrophobic capillaries, Monolith NT.115, 30% LED and 40% IR-laser power
[2] = molecular target: TAMRA-labeled UBXN1 UBA(ext1-52) domain (UniProt Q04323); experiment: fluorescence polarisation; 5 nM TAMRA-labeled UBA peptide fixed, diubiquitin 0.78 to 25 μM in six steps, triplicate; overnight incubation at 4°C, read at room temperature; 20 mM Tris pH 7.6, 150 mM NaCl, 0.5 mg/ml BGG, 1% TX-100; one site binding (hyperbola) fit

Sequence of UniProt Q04323 (Q04323 1-52): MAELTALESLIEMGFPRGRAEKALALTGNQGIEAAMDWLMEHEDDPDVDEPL

Kd [1]: 1.05 µM
Kd [2]: 1.43 µM
Substance: K6-linked diubiquitin (native, unlabeled) (from UniProt P0CG48 1-76; P0CG48 1-76)

Reference: article PMC6987245
